T1: LRRC7, Q96NW7
T1 sequence (Q96NW7 1440-1537, limits assumed, looked up): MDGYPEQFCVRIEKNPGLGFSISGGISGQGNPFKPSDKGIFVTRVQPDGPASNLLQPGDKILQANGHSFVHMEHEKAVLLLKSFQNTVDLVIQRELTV

T2: PCLO, Q9Y6V0
T2 sequence (Q9Y6V0 4491-4600, limits assumed, looked up): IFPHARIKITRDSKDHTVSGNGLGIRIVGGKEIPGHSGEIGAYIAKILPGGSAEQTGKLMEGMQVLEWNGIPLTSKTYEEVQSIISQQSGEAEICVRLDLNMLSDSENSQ

T3: LIN7B, Q9HAP6
T3 sequence (Q9HAP6 88-185, limits assumed, looked up): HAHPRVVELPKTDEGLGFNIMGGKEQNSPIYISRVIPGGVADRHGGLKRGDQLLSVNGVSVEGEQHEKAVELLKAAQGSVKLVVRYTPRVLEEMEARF

T4: NHERF3_3, Q5T2W1
T4 sequence (Q5T2W1 238-333, limits assumed, looked up): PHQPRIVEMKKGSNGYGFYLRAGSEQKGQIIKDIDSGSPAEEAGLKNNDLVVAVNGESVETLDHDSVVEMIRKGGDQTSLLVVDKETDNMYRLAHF

T5: LNX2_2, Q8N448
T5 sequence (Q8N448 334-432, limits assumed, looked up): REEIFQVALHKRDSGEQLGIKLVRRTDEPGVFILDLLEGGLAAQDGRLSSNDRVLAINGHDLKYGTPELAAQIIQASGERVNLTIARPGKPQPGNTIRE

T6: NHERF3_1, Q5T2W1
T6 sequence (Q5T2W1 4-100, limits assumed, looked up): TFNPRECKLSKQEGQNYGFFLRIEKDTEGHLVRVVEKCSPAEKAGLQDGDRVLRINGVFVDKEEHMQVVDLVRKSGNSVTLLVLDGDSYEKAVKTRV

T7: SNTG1, Q9NSN8
T7 sequence (Q9NSN8 52-150, limits assumed, looked up): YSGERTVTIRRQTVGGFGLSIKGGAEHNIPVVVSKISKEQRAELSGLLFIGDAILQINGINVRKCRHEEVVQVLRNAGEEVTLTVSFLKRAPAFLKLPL

T8: CARD11, Q9BXL7
T8 sequence (Q9BXL7 662-765, limits assumed, looked up): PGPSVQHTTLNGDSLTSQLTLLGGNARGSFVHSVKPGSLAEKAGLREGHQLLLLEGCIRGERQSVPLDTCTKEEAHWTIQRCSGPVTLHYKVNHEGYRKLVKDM

T9: HTRA3, P83110
T9 sequence (P83110 354-453, limits assumed, looked up): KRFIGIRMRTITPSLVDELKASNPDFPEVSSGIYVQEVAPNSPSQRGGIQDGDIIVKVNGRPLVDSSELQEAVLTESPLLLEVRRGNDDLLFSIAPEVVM

B1: PFKM, P08237 (peptide)
chain: TRKRSGEAAV
B2: PLXNB1, O43157 (peptide)
chain: AAVENKVTDL

target: IL16_3, Q14005; assay: holdup assay; set-up: key: below the threshold = too weak to quantify, mostly under pKd 3.1 to 4; conditions: plain residues with an end cap or a label only (N-terminal biotin on a linker: ado-ado)
Sequence (Q14005 1107-1207): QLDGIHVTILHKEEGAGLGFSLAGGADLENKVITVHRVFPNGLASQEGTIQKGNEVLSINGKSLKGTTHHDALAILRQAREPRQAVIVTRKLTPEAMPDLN

Row | pKd | Binder
1 | below the threshold | B1
2 | below the threshold | B2

target: T1, LRRC7, Q96NW7; assay: holdup assay; set-up: key: below the threshold = too weak to quantify, mostly under pKd 3.1 to 4; conditions: plain residues with an end cap or a label only (N-terminal biotin on a linker: ado-ado)

Row | pKd | Binder
3 | below the threshold | B1
4 | 3.74 | B2

target: LAP2, Q96RT1; assay: holdup assay; set-up: key: below the threshold = too weak to quantify, mostly under pKd 3.1 to 4; conditions: plain residues with an end cap or a label only (N-terminal biotin on a linker: ado-ado)
Sequence (Q96RT1 other isoform, or with tags, fused parts or gaps): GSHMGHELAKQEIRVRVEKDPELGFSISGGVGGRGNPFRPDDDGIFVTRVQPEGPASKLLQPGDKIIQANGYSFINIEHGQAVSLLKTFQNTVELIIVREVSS

Row | pKd | Binder
5 | 3.48 | B1
6 | 3.54 | B2

target: DLG4_3, P78352; assay: holdup assay; set-up: key: below the threshold = too weak to quantify, mostly under pKd 3.1 to 4; conditions: plain residues with an end cap or a label only (N-terminal biotin on a linker: ado-ado)
Sequence (P78352 306-403): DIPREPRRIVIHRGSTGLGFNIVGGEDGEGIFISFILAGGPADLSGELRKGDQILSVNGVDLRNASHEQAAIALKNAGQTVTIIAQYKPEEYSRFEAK

Row | pKd | Binder
7 | below the threshold | B1
8 | below the threshold | B2

target: DLG5_1, Q8TDM6; assay: holdup assay; set-up: key: below the threshold = too weak to quantify, mostly under pKd 3.1 to 4; conditions: plain residues with an end cap or a label only (N-terminal biotin on a linker: ado-ado)
Sequence (Q8TDM6 617-713): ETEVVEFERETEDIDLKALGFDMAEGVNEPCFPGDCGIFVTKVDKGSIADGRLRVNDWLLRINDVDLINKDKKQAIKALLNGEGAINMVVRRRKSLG

Row | pKd | Binder
9 | below the threshold | B1
10 | below the threshold | B2

target: MAGI2_4, Q86UL8; assay: holdup assay; set-up: key: below the threshold = too weak to quantify, mostly under pKd 3.1 to 4; conditions: plain residues with an end cap or a label only (N-terminal biotin on a linker: ado-ado)
Sequence (Q86UL8 772-865): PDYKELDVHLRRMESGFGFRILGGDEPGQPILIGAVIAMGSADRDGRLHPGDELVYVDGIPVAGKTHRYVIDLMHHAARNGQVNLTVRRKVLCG

Row | pKd | Binder
11 | below the threshold | B1
12 | below the threshold | B2

target: T2, PCLO, Q9Y6V0; assay: holdup assay; set-up: key: below the threshold = too weak to quantify, mostly under pKd 3.1 to 4; conditions: plain residues with an end cap or a label only (N-terminal biotin on a linker: ado-ado)

Row | pKd | Binder
13 | below the threshold | B1
14 | below the threshold | B2

target: T3, LIN7B, Q9HAP6; assay: holdup assay; set-up: key: below the threshold = too weak to quantify, mostly under pKd 3.1 to 4; conditions: plain residues with an end cap or a label only (N-terminal biotin on a linker: ado-ado)

Row | pKd | Binder
15 | below the threshold | B1
16 | below the threshold | B2

target: Inadl_5, Q8NI35; assay: holdup assay; set-up: key: below the threshold = too weak to quantify, mostly under pKd 3.1 to 4; conditions: plain residues with an end cap or a label only (N-terminal biotin on a linker: ado-ado)
Sequence (Q8NI35 673-780): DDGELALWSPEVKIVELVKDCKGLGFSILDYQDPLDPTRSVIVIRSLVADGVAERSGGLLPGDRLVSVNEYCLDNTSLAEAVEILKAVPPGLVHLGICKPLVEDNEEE

Row | pKd | Binder
17 | below the threshold | B1
18 | below the threshold | B2

target: GRID2IP_2, A4D2P6; assay: holdup assay; set-up: key: below the threshold = too weak to quantify, mostly under pKd 3.1 to 4; conditions: plain residues with an end cap or a label only (N-terminal biotin on a linker: ado-ado)
Sequence (A4D2P6 272-370): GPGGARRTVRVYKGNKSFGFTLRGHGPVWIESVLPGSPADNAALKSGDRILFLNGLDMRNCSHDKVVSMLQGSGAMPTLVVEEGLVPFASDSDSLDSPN

Row | pKd | Binder
19 | below the threshold | B1
20 | 4.56 | B2

target: SCRIB_3, Q14160; assay: holdup assay; set-up: key: below the threshold = too weak to quantify, mostly under pKd 3.1 to 4; conditions: plain residues with an end cap or a label only (N-terminal biotin on a linker: ado-ado)
Sequence (Q14160 999-1103): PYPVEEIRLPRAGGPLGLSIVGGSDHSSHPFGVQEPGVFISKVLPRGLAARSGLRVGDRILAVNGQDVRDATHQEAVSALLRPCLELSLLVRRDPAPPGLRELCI

Row | pKd | Binder
21 | below the threshold | B1
22 | 4.94 | B2

target: SNX27, Q96L92; assay: holdup assay; set-up: key: below the threshold = too weak to quantify, mostly under pKd 3.1 to 4; conditions: plain residues with an end cap or a label only (N-terminal biotin on a linker: ado-ado)

Row | pKd | Binder
23 | 3.83 | B1
24 | 4.12 | B2

target: SCRIB_2, Q14160; assay: holdup assay; set-up: key: below the threshold = too weak to quantify, mostly under pKd 3.1 to 4; conditions: plain residues with an end cap or a label only (N-terminal biotin on a linker: ado-ado)
Sequence (Q14160 857-960): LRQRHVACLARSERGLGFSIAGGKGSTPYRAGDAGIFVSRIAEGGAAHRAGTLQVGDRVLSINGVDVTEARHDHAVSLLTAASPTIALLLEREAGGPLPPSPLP

Row | pKd | Binder
25 | below the threshold | B1
26 | 3.52 | B2

target: T4, NHERF3_3, Q5T2W1; assay: holdup assay; set-up: key: below the threshold = too weak to quantify, mostly under pKd 3.1 to 4; conditions: plain residues with an end cap or a label only (N-terminal biotin on a linker: ado-ado)

Row | pKd | Binder
27 | below the threshold | B1
28 | below the threshold | B2

target: T5, LNX2_2, Q8N448; assay: holdup assay; set-up: key: below the threshold = too weak to quantify, mostly under pKd 3.1 to 4; conditions: plain residues with an end cap or a label only (N-terminal biotin on a linker: ado-ado)

Row | pKd | Binder
29 | 3.53 | B1
30 | below the threshold | B2

target: GRIP2_7, Q9C0E4; assay: holdup assay; set-up: key: below the threshold = too weak to quantify, mostly under pKd 3.1 to 4; conditions: plain residues with an end cap or a label only (N-terminal biotin on a linker: ado-ado)
Sequence (Q9C0E4 934-1023): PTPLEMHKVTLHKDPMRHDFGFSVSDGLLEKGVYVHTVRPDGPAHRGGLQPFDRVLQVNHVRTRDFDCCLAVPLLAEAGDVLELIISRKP

Row | pKd | Binder
31 | below the threshold | B1
32 | below the threshold | B2

target: TJP2_1, Q9UDY2; assay: holdup assay; set-up: key: below the threshold = too weak to quantify, mostly under pKd 3.1 to 4; conditions: plain residues with an end cap or a label only (N-terminal biotin on a linker: ado-ado)
Sequence (Q9UDY2 24-128): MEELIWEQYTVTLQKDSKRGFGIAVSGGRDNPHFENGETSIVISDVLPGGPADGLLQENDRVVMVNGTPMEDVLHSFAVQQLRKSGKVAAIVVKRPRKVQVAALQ

Row | pKd | Binder
33 | below the threshold | B1
34 | below the threshold | B2

target: T6, NHERF3_1, Q5T2W1; assay: holdup assay; set-up: key: below the threshold = too weak to quantify, mostly under pKd 3.1 to 4; conditions: plain residues with an end cap or a label only (N-terminal biotin on a linker: ado-ado)

Row | pKd | Binder
35 | below the threshold | B1
36 | below the threshold | B2

target: T7, SNTG1, Q9NSN8; assay: holdup assay; set-up: key: below the threshold = too weak to quantify, mostly under pKd 3.1 to 4; conditions: plain residues with an end cap or a label only (N-terminal biotin on a linker: ado-ado)

Row | pKd | Binder
37 | below the threshold | B1
38 | 3.74 | B2

target: T8, CARD11, Q9BXL7; assay: holdup assay; set-up: key: below the threshold = too weak to quantify, mostly under pKd 3.1 to 4; conditions: plain residues with an end cap or a label only (N-terminal biotin on a linker: ado-ado)

Row | pKd | Binder
39 | below the threshold | B1
40 | below the threshold | B2

target: GOPC, Q9HD26; assay: holdup assay; set-up: key: below the threshold = too weak to quantify, mostly under pKd 3.1 to 4; conditions: plain residues with an end cap or a label only (N-terminal biotin on a linker: ado-ado)

Row | pKd | Binder
41 | below the threshold | B1
42 | 3.65 | B2

target: Inadl_10, Q8NI35; assay: holdup assay; set-up: key: below the threshold = too weak to quantify, mostly under pKd 3.1 to 4; conditions: plain residues with an end cap or a label only (N-terminal biotin on a linker: ado-ado)
Sequence (Q8NI35 1673-1763): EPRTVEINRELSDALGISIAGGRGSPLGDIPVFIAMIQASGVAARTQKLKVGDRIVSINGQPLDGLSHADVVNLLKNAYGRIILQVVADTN

Row | pKd | Binder
43 | below the threshold | B1
44 | below the threshold | B2

target: PICK1, Q9NRD5; assay: holdup assay; set-up: key: below the threshold = too weak to quantify, mostly under pKd 3.1 to 4; conditions: plain residues with an end cap or a label only (N-terminal biotin on a linker: ado-ado)
Sequence (Q9NRD5 17-115): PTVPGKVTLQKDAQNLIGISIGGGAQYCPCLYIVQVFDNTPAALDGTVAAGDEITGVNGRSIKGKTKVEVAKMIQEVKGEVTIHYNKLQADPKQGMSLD

Row | pKd | Binder
45 | 4.18 | B1
46 | below the threshold | B2

target: GRIP2_5, Q9C0E4; assay: holdup assay; set-up: key: below the threshold = too weak to quantify, mostly under pKd 3.1 to 4; conditions: plain residues with an end cap or a label only (N-terminal biotin on a linker: ado-ado)
Sequence (Q9C0E4 544-642): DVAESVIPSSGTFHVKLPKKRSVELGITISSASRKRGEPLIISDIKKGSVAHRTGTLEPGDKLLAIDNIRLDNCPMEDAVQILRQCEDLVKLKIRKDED

Row | pKd | Binder
47 | below the threshold | B1
48 | below the threshold | B2

target: LDB3, O75112; assay: holdup assay; set-up: key: below the threshold = too weak to quantify, mostly under pKd 3.1 to 4; conditions: plain residues with an end cap or a label only (N-terminal biotin on a linker: ado-ado)
Sequence (O75112 1-94): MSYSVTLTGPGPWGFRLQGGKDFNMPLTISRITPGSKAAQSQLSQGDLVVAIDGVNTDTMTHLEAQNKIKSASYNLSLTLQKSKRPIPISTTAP

Row | pKd | Binder
49 | below the threshold | B1
50 | below the threshold | B2

target: T9, HTRA3, P83110; assay: holdup assay; set-up: key: below the threshold = too weak to quantify, mostly under pKd 3.1 to 4; conditions: plain residues with an end cap or a label only (N-terminal biotin on a linker: ado-ado)

Row | pKd | Binder
51 | below the threshold | B1
52 | below the threshold | B2

target: NHERF4_1, Q86UT5-2; assay: holdup assay; set-up: key: below the threshold = too weak to quantify, mostly under pKd 3.1 to 4; conditions: plain residues with an end cap or a label only (N-terminal biotin on a linker: ado-ado)
Sequence (Q86UT5 other isoform, or with tags, fused parts or gaps): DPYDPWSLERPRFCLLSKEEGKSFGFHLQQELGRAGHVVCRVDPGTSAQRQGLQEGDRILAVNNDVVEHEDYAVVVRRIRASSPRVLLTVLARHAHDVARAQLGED

Row | pKd | Binder
53 | below the threshold | B1
54 | 4 | B2

target: NHERF4_2, Q86UT5; assay: holdup assay; set-up: key: below the threshold = too weak to quantify, mostly under pKd 3.1 to 4; conditions: plain residues with an end cap or a label only (N-terminal biotin on a linker: ado-ado)
Sequence (Q86UT5 220-308): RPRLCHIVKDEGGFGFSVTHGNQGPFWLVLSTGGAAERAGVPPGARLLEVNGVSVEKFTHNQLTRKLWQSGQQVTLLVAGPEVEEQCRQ

Row | pKd | Binder
55 | below the threshold | B1
56 | below the threshold | B2

From article PMC9482650, “Quantitative fragmentomics allow affinity mapping of interactomes” (Nature Communications, 2022)
